Data: US11001846B2, “Aptamers, nucleic acid molecules, polynucleotides, synthetic antibodies compositions for detecting PRRS viruses and treating PRRS virus infection” (AEROVIRUS TECHNOLOGIES INC., priority 2015, dated 2021)
Where “and” joins values, the source holds several entries; their conditions need not be identical. Equal entries are not always repeated.

What was measured:
[1] = test system: LHVA-3 PRRS virus; test: MTT assay, in vitro protection of PAMs or MARC-145 cells from LHVA-3 infection; assay type: cell-based, PRRSV; conditions: for protective effect when added after virus incubation: FIG. 9d
Description: PAMs or MARC-145 cells were plated in 96 well plates (7×10^4/well) one day prior to the assay. […] Following infection, cells were incubated in growth medium at 37° C. for 72 hours. MTT assay was performed by adding 4 mg/ml MTT (3-[4,5-Dimethylthiazol-2-yl]-2,5-diphenyltetrazolium bromide dissolved in PBS to the cell cultures and incubation at 37° C. for 3 hours. Plates were then centrifuged at 800×g for 10 min. Supernatants were aspirated and the formazan dye was dissolved in 150 μl/well of isopropyl alcohol, and O.D. values were determined with an ELISA reader at 570 nm.
In Vitro Viral Protection Prior to Viral Infection PAMs or MARC-145 cells were plated on 96 well plates (7×10^4/well) 24 hours prior to the experiment. Each well was washed twice with DPBS prior to treating the cells with various amounts of A505 (12.5 to 2000 pmole) at 37° C. for the indicated time points. […] Following incubation, cells were transferred to growth medium and incubated at 37° C. for 72 hours. Thereafter an MTT assay was implemented as described.
In Vitro Viral Protection Following Viral Infection—PAMs or MARC-145 cells were plated on 96 well plates (7×10^4/well) 24 hours prior to viral infection. Viral infection was effected as described above. Infected cells were gently washed with DPBS for 3 times. Cells were then treated with various amounts of A505 (12.5 to 2000 pmole) for 1 hour at 37° C. Following incubation, cells were transferred to growth medium and incubated at 37° C. for 72 hours. Thereafter an MTT assay was implemented as described.

[2] = test system: LHVA-93-3 PRRS virus; test: In-vivo protection of swine from PRRSV infection (Example 3)
Description: Swine—SPF American Yorkshire swine at the age of 10-12 weeks were purchased. The selected swine were all exempt of PRRSV, SIV, and Mycoplasma Hyopneumoniae.
(§1) Swine were inoculated intranasally with sub-lethal infectious fluid containing 40TCID50/ml PRRS virus (LHVA-93-3) with or without 2.5 nmole A505 aptamer for different time intervals. Pig body weight was monitored for 2 weeks. Viral titer in the lungs was determined by the CPE titration method (OIE Terrestrial Manual—May 2015, Chapter 2.8.7—Porcine Reproductive and Respiratory Syndrome, section 1.1.3). Other pigs were sacrificed 6 days following viral inoculation and lungs were removed and homogenized in PBS 0.1% BSA (10% w/v). Following homogenization, samples were centrifuged to remove debris and stored at −80° C.
(§2) The cells/viruses were incubated for 2-5 days and observe daily for a CPE. At day 2, seed macrophages in new microtitre plates. Fifty (50) μl of the supernatants were transferred from the plates of the first passage to the corresponding wells of the freshly seeded plates (second passage). The wells were incubated for 2-5 days and observed daily for a CPE. The results of the CPE assays were presented as log TCID50.
For lung histology, pigs were sacrificed at day 7 and lungs were removed into 10% neutral buffered formalin (pH 7.0). Lungs were then sectioned and stained with haemotoxylin and eosin.
The antiviral properties of A505 were determined in vivo prior to and following viral infection. Briefly, the swine were divided into four groups designated ‘untreated’, ‘0 day’, ‘+1 day’ and ‘+2 day’. Each pig was challenged with 40 TCID50/ml of LHVA-93-3 PRRS viruses. Pigs in ‘0 day’ group were inoculated with a mixture of the virus and 2.5 μmole/ml A505, intranasally (i.n.). Pigs in ‘+1 day’ and ‘+2 day’ groups were inoculated with 2.5 μmole/ml A505, in 1 day or 2 days following virus infection, respectively. PRRS infection was monitored by three parameters, including (i) body weight loss during 14 days following virus treatment; (ii) lung virus titre; (iii) histological examination of lungs—sections were taken 7 days following virus inoculation.

[3] = test system: LHVA-93-3 PRRS virus; test: In-vivo lung virus titer, LHVA-93-3, comparison with control oligonucleotide and Tilmicosin (Example 4); design: species or system swine; conditions: intra-nasal
Description: as §1, §2
Tilmicosin (Pulmotil®) was purchased from Eli Lilly (Elanco®), Canada.
Were implemented as described hereinabove. A dose of 15 ug/Kg of A505 was used.
The ability of the A505 aptamer to inhibit PRRSV infection was also compared to that of one of the currently available “anti-PRRSV” drugs, the antibiotic Tilmicosin. To this end, both A505 and Tilmicosin were administered once, together with the virus, using the intra-nasal route. As is shown in Table 2 below, a dose of 60 mg/pig of Tilmicosin (1 mg/kg body weight) reduced virus titer by 0.42 log TCID50, representing a 2.6-fold reduction in virus burden. This is in comparison to a reduction by 1.21 log TCID50 affected by A505 in this particular experiment (over 10 fold reduction in virus burden).

B1: A505: ssDNA aptamer binding type 2 PRRSV M-S-S-GP5 complex (nucleic acid)
DNA: GGGCGACCCTGAAGAGTTTGTAATCTGCGATTTTAAAGTTGAGTCGTCGCGAAACGGTGAAAGCCGTAGGTTGCCC
modifications: DNA, backbone and methylation of C not given here
For B1, the “survival rate of cells pre-incubated with aptamer then washed before infection” value ([1]; 500 pmole for 30 min or 60 min, repeated washing, then virus, FIG. 9c) was “no significant difference between the survival rate of non-treated and treated cells”, the “protection against infection of the cells” value ([1]; 500 pmole, LHVA-3, compared to non-infected MARC-145 cells, FIG. 9b) was roughly 60% and the “protective effect when added after virus incubation” value ([1]; 500 TCID50 LHVA-93-3 for 30 min prior to 500 pmole aptamer, vs infected cells) was “highly significant difference”. The “protective effect when added after virus incubation” value ([1]; 500 TCID50 LHVA-93-3 for 60 min prior to 500 pmole aptamer) was “not significant”, the virus-associated cell-death ([1]; cells treated with aptamer prior to viral infection, FIG. 9a) was “significant reduction in virus-associated cell-death” and the body weight loss ([2]; 14 days, treatment groups +2 day, 0 day, +1 day vs control group, FIG. 12a) was “significantly lower weight loss and enhanced recovery”. For the same molecule, the “protection equivalent to lung virus titer difference” value ([2]; '0 day' group) was “over 99%”, the “difference in lung virus titer compared to the non-treated group” value ([2]; '0 day' group, 2.5 μmole/ml A505 i.n. mixed with virus, 40 TCID50/ml, FIG. 12b) was “more than 2 log” and the “protection in lung virus titer, treatment after infection” value ([2]; '+1 day' and '+2 day' groups) was “Further protection”. For the same molecule, the “reduction of viral load in the lungs vs infected group” value ([2]; all three A505-treated groups, six days after infection, p<0.05, FIG. 12b) was “statistically significant”, the “lung histology, inflamed areas” value ([2]; sections 7 days after virus inoculation, intranasal A505) was “reduces the inflamed areas in lungs” and the “Reduction Factor” value ([3]; Table 2, administered once with the virus) was 17.1. For the same molecule, the “Δ (log TCID50), reduction of virus titer” value ([3]; administered once together with the virus, Tilmicosin 60 mg/pig (1 mg/kg), A505 15 ug/Kg) was 1.21 log TCID50 and 1.23 log TCID50 and the “reduction in virus burden” value ([3]; administered once with the virus) was “over 10 fold”.
